The record followed here is paper PMC10200313 (ACS chemical biology, 2022).

This assay concerns the target T1, 6E peptide (14-mer peptide derived from UBC6e, with N-terminal triglycine motif) (Homo sapiens, UniProt Q9Y385).
T1 chain: QADQEAKELARQIS
Nature of the assay: SPR. For orientation: Surface plasmon resonance follows binding to a sensor surface in real time, without labels.

B1: Nb6E labeled with biotin (Nb6E-biotin) (VHH)
VHH: QVQLQESGGGLVQPGGSLRLSCAASGFVFENSAMAWYRQAPGKERELIAVIGTTFIKLAESVKGRFTISRDNAKSTVYLQMNNLKPEDTAVYYCSKSGAYWGQGTQVTVSS
For the molecule B1, the binding result is “binds”.
